Results taken from patent US20260055188A1.

Target: Human-TNFR2-His (manufacturer: SINO, CAT: 10417-H08H) (human) (UniProt P20333)
Test: flow cytometry, bridging: CHOK1-18.2 cells (human Claudin18.2) + 150 nM isotype control + human TNFR2-His, anti-His FITC detection; irrelevant antibody (blank 13476)

E1 Mean FITC-A: 14400
Substance: Human IgG1 kappa Isotype control (Sino Biological, Cat. No.: HG1K) (antibody)
